Data reported in publication PMC3107159, “Resistance to organic hydroperoxides requires ohr and ohrR genes in Sinorhizobium meliloti” (BMC Microbiology, 2011).
Positions count from the first letter of the chain named.

T1: OhrR (Sinorhizobium meliloti Rm1021 (S. meliloti chromosomal DNA; Rm1021?)) (UniProt Q92MX6)
T1 sequence: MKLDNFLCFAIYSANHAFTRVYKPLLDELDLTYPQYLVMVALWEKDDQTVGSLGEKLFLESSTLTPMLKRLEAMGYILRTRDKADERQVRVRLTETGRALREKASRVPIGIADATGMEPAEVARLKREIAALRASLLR

T2: OhrR (Sinorhizobium meliloti, UniProt Q92RD0)
T2 construct: gene SMc00098; full-length ORF in pET22b+, C-terminal 6His tag kept, E. coli BL21(DE3), heparin column; homodimer
T2 sequence (Q92RD0 1-158): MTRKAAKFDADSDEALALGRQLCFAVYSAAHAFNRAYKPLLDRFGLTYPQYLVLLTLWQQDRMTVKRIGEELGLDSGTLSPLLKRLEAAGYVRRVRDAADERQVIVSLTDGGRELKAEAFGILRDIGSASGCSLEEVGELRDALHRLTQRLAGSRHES

T3: OhrR (Sinorhizobium meliloti Rm1021 (S. …, UniProt Q92MX6 1-138))
T3 sequence: T1 sequence

B1: M1 60 bp (dsDNA)
DNA 1: GGGGGGGAAGCTAGTCACCGCAAATTAATTTTGCGATACTAGAGAGATGCATATGGGGGG
DNA 2: CCCCCCATATGCATCTCTCTAGTATCGCAAAATTAATTTGCGGTGACTAGCTTCCCCCCC
B2: M2 60 bp (dsDNA)
DNA 1: B1 DNA 1 with A27G, A28C, T32G, G33C
DNA 2: B1 DNA 2 with C28G, A29C, T33G, T34C
B3: Mut1 60 bp (GC to AA in motif 1) (dsDNA)
DNA 1: B1 DNA 1 with G20A, C21A
DNA 2: B1 DNA 2 with G40T, C41T
B4: Mut2 60 bp (AAA to CCC in motif 1) (dsDNA)
DNA 1: B1 DNA 1 with A22C, A23C, A24C
DNA 2: B1 DNA 2 with T37G, T38G, T39G

How the values were obtained:
[1] = target: T1, OhrR (Sinorhizobium meliloti Rm1021 (S. meliloti chromosomal DNA; Rm1021?)); assay: EMSA; details: 20 mM Tris-HCl pH 8.0, 50 mM KCl, 1 mM EDTA, 50 uM BSA, room temperature 10 min, 20 ul, 20 pmol DNA, 0-100 pmol OhrR, 6% PAGE in Tris-borate, SYBR gold
OhrR [2] = target: T2, OhrR; assay: non-reducing SDS-PAGE of oxidised protein; type: binding; details: covalent oxidation, reversible intersubunit disulfide dimer; 15 min incubation; 0.55 nM CuOOH as printed; reversed by DTT
OhrR [3] = target: T3, OhrR; assay: EMSA; 1 mM DTT; 20 mM Tris-HCl pH 8.0, 50 mM KCl, 1 mM EDTA, 50 uM BSA, room temperature 10 min, 20 ul; 20 pmol DNA, 0-100 pmol OhrR; 6% PAGE in Tris-borate, SYBR gold; 1 mM DTT in Fig 3C; details: protein: recombinant; tags: C-terminal 6xHis (pET22b+); chain copies: 2; label: none (SYBR gold stain); blunt

Molecule	binding result (OhrR [3])	other results
CATGACAGTCTCCTTCCTTGTGGTTGCCGGATTTATATATCGCAAGATTAAATAGCGCGCAAATTAATTTTGCAAATTGCTTTGCCGGCGTGAATTTGCGACAATGACATCAT (double strand) [ohr-ohrR intergenic region 113 bp]		binding [1]: binds
CC(C)(OO)c1ccccc1 [CuOOH]		non-reducing SDS-PAGE of oxidised protein (OhrR [2]): Incubation of the protein with CuOOH or H2O2 led to the formation of a band
B1	binds	
B2	binds	
B3	no binding	
B4	no binding	
